Target: complement factor C1q
Test: FACS, C1q on antibody-coated BT-474 cells, 10 ug/ml each

Chain of complement factor C1q (P02745 23-245, chain 1 of 3): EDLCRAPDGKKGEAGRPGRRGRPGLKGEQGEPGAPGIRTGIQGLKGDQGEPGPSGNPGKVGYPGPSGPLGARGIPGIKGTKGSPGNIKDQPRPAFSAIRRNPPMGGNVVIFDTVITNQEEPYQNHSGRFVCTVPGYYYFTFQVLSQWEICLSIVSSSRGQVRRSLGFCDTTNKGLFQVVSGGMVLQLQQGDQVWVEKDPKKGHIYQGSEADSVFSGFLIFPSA
Chain of complement factor C1q (P02746 28-253, chain 2 of 3, further chain): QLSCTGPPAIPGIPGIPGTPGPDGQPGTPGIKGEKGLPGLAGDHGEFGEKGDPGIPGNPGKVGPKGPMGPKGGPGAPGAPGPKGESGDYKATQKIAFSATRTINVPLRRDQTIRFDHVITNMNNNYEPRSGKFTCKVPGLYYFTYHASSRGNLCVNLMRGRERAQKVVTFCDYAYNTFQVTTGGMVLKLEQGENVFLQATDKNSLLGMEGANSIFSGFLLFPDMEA
Chain of complement factor C1q (P02747 29-245, chain 3 of 3, further chain): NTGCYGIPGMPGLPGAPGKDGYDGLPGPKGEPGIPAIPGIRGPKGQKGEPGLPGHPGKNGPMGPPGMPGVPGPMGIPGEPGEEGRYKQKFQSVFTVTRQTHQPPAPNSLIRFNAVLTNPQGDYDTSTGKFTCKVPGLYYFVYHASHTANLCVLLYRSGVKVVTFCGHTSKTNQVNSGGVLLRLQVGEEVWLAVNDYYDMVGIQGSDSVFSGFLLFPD

“combination of trastuzumab and pertuzumab” was tested, and the PE-signal (geomean) was 2160.

Reference: patent US20230212312A1
